# T1: Cynomolgus macaques TSLP recombinant protein (Cynomolgus macaques, UniProt Q969D9 29-159 (human entry), limits assumed, biotinylated in the blocking assays (sites not given))
# T1 construct: also called cyTSLP; biotinylated Cynomolgus macaques TSLP protein
# T1 chain: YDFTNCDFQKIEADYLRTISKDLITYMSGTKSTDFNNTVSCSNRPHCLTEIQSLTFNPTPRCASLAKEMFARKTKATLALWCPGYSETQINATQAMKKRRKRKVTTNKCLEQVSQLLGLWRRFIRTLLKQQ
# Experiments:
# [1] = molecular target: T2, human TSLP recombinant protein (human, UniProt Q969D9 29-159, biotinylated in the blocking and cell-binding assays (sites not given)); test: ELISA on coated human TSLP;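 also: binding detected by TMB colour development for 10 min at 37 °C, then absorbance measured at 450 nm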
# T2 construct: also called biotinylated human TSLP protein
# [2] = molecular target: T1, Cynomolgus macaques TSLP recombinant …; test: ELISA on coated cynomolgus TSLP;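 also: Read-out was TMB colorimetric signal measured as absorbance at 450 nm after 10 min development at 37 °C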
# Description: The plate was washed three times with PBS and blocked by adding 200 μL/well of PBS containing 2% skim milk for 1 hour. […] After washing with PBST and PBS three times, respectively, 100 μL of TMB substrate was added to each well for color development at 37° C. for 10 minutes, the reaction was terminated with 50 μL of 2M sulfuric acid solution per well, and the absorbance was read at a wavelength of 450 nm.
# [3] = molecular target: T2, human TSLP recombinant protein; test: competition ELISA, biotin-human TSLP to coated human TSLPR-Fc
# Description: Human TSLPR recombinant protein was coated onto a 96-well microtiter plate at 1 μg/mL in carbonate buffer overnight at 4° C. The plate was washed three times with PBS and blocked by adding 200 μL/well of PBS containing 2% skim milk for 1 hour. […] The 96-well plate was washed three times with PBS, and 100 μL of the incubated mixture was added to each well and incubated for 1 hour at room temperature. After washing with PBST and PBS three times, respectively, 100 μL of SA-HRP was added to each well and incubated at room temperature for 30 minutes in the dark. After washing with PBST and PBS three times, respectively, 100 μL of TMB substrate was added to well for color development at 37° C. for 10 minutes, the reaction was terminated with 50 μL of 2M sulfuric acid solution per well, and the absorbance was read at a wavelength of 450 nm.
# [4] = molecular target: T1, Cynomolgus macaques TSLP recombinant …; test: competition ELISA, biotin-cynomolgus TSLP to coated cynomolgus TSLPR-Fc
# Description: Cynomolgus macaques TSLPR recombinant protein was coated onto a 96-well microtiter plate at 1 g/mL in carbonate buffer overnight at 4° C. The plate was washed three times with PBS and blocked by adding 200 μL/well of PBS containing 2% skim milk for 1 hour. […] The 96-well plate was washed three times with PBS, and 100 μL of the incubated mixture was added to each well and incubated for 1 hour at room temperature. After washing with PBST and PBS three times, respectively, 100 μL of SA-HRP was added to each well and incubated at room temperature for 30 minutes in the dark. After washing with PBST and PBS three times, respectively, 100 μL of TMB substrate was added to well for color development at 37° C. for 10 minutes, the reaction was terminated with 50 μL of 2M sulfuric acid solution per well, and the absorbance was read at a wavelength of 450 nm.
# [5] = molecular target: T2, human TSLP recombinant protein; test: flow cytometry competition, biotin-human TSLP to Ba/F3-hTSLPR-IL7Rα cells
# Description: Ba/F3-hTSLPR-IL7Rα cells were washed three times with PBS, centrifuged at 300 g for 3 minutes, and blocked with 3% BSA/PBS for 30 minutes. The cells were resuspended and added to a 96-well U-plate at 5×10⁴/well.
EC50 [1],binding result [2],IC50 [3],EC50 [2],IC50 [4],IC50 [5],Binder
1.89 nM,binds,–,–,–,–,"Ab7 (antibody, V domains shown, Humanized; also called h39G5VHv7/h39G5VKv1) VH: QVQLVQSGAEVKKPGSSVKVSCKASGYTFTDYWMHWVRQAPGQGLEWMGTIDNSDSDTSLNQKFQGRVTLTVDESSSTAYMELSSLRSEDTAVYYCARSLDGYYDYWGQGTLVTVSS VL: DIQMTQSPSSLSASVGDRVTITCRASENIYSYLAWYQQKPGKAPKLLIYNARTLPEGVPSRFSGSGSGTDFTLTISSLQPEDFATYYCQHHYTTPWTFGQGTKVEIK"
0.39 nM,–,1.69 nM,5.54 nM,0.43 nM,–,"Ab4 (antibody, V domains shown, Humanized; also called h39G5VHv4/h39G5VKv1) VH: EVQLVQSGAEVKKPGESLRISCKASGYSFISYWIHWVRQMPGKGLEWMGIIDPSDSDTSLNQSFQGHVTISADKSISTAYLQWSSLKASDTAMYYCARSLDGYYDYWGQGTLVTVSS VL: DIQMTQSPSSLSASVGDRVTITCRASENIYSYLAWYQQKPGKAPKLLIYNARTLPEGVPSRFSGSGSGTDFTLTISSLQPEDFATYYCQHHYTTPWTFGQGTKVEIK"
5.87 nM,–,–,12.6 nM,–,–,"Ab16 (antibody, V domains shown, Humanized; also called h71G4VHv1/h39G5VKv1) VH: QVQLVQSGAEVKKPGSSVKVSCKASGYTFTDYWMHWVRQAPGQGLEWMGTIDNSDSDTTYNPSFQGHVTISADKSISTAYLQWSSLKASDTAMYYCARSVDGYLDYWGQGTLVTVSS VL: DIQMTQSPSSLSASVGDRVTITCRASENIYSYLAWYQQKPGKAPKLLIYNARTLPEGVPSRFSGSGSGTDFTLTISSLQPEDFATYYCQHHYTTPWTFGQGTKVEIK"
1.08 nM,–,–,4.22 nM,–,–,"Ab27 (antibody, V domains shown, Humanized; also called h39G5VHv11/h71G4VKv1) VH: QVQLVQSGAEVKKPGSSVKVSCKASGYTFTDYWMHWVRQAPGQGLEWMGTIDNSDSDTSLNQKFQGRVTITADTSTSTAYMELSSLRSEDTAVYYCARSLDGYYDYWGQGTLVTVSS VL: DIQMTQSPSSLSASVGDRVTITCRTSENIYSYLAWYQQKPGKAPKLLIYFAKTLTDGVPSRFSGSGSGTDFTLTISSLQPEDFATYYCQHHYGTPWTFGQGTKVEIK"
0.21 nM,–,1.49 nM,2.53 nM,1.1 nM,–,"Ab2 (antibody, V domains shown, Humanized; also called h39G5VHv2/h39G5VKv1) VH: QVQLVQSGAEVKKPGSSVKVSCKASGYSFISYWIHWVRQAPGQGLEWMGIIDPSDSDTSLNQKFQGRVTITADESTSTAYMELSSLRSEDTAVYYCARSLDGYYDYWGQGTLVTVSS VL: DIQMTQSPSSLSASVGDRVTITCRASENIYSYLAWYQQKPGKAPKLLIYNARTLPEGVPSRFSGSGSGTDFTLTISSLQPEDFATYYCQHHYTTPWTFGQGTKVEIK"
0.27 nM,–,1.82 nM,1.16 nM,0.85 nM,0.35 nM,"Ab25 (antibody, V domains shown, Humanized; also called h39G5VHv6/h71G4VKv1) VH: QVQLVQSGAEVKKPGSSVKVSCKASGYTFTDYWMHWVRQAPGQGLEWMGTIDNSDSDTSLNQKFQGRVTLTVDTSTSTAYMELSSLRSEDTAVYYCARSLDGYYDYWGQGTLVTVSS VL: DIQMTQSPSSLSASVGDRVTITCRTSENIYSYLAWYQQKPGKAPKLLIYFAKTLTDGVPSRFSGSGSGTDFTLTISSLQPEDFATYYCQHHYGTPWTFGQGTKVEIK"
0.19 nM,–,1.7 nM,2.29 nM,1.78 nM,–,"Ab1 (antibody, V domains shown, Humanized; also called h39G5VHv1/h39G5VKv1) VH: QVQLVQSGAEVKKPGSSVKVSCKASGYSFISYWIHWVRQAPGQGLEWMGIIDPSDSDTSLNQKFQGRVTLTVDKSSTTAYMELSSLRSEDTAVYYCARSLDGYYDYWGQGTLVTVSS VL: DIQMTQSPSSLSASVGDRVTITCRASENIYSYLAWYQQKPGKAPKLLIYNARTLPEGVPSRFSGSGSGTDFTLTISSLQPEDFATYYCQHHYTTPWTFGQGTKVEIK"
0.32 nM,–,1.36 nM,2.24 nM,0.37 nM,–,"Ab10 (antibody, V domains shown, Humanized; also called h39G5VHv10/h39G5VKv1) VH: QVQLVQSGAEVKKPGSSVKVSCKASGYTFTDYWMHWVRQAPGQGLEWMGIIDPSDSDTSLNQKFQGRVTITADTSTSTAYMELSSLRSEDTAVYYCARSLDGYYDYWGQGTLVTVSS VL: DIQMTQSPSSLSASVGDRVTITCRASENIYSYLAWYQQKPGKAPKLLIYNARTLPEGVPSRFSGSGSGTDFTLTISSLQPEDFATYYCQHHYTTPWTFGQGTKVEIK"

# The next lines start with the binder.
Binder,EC50 [1],binding result [2],IC50 [3],EC50 [2],IC50 [4],IC50 [5]
"Ab6 (antibody, V domains shown, Humanized; also called h39G5VHv6/h39G5VKv1) VH: QVQLVQSGAEVKKPGSSVKVSCKASGYTFTDYWMHWVRQAPGQGLEWMGTIDNSDSDTSLNQKFQGRVTLTVDTSTSTAYMELSSLRSEDTAVYYCARSLDGYYDYWGQGTLVTVSS VL: DIQMTQSPSSLSASVGDRVTITCRASENIYSYLAWYQQKPGKAPKLLIYNARTLPEGVPSRFSGSGSGTDFTLTISSLQPEDFATYYCQHHYTTPWTFGQGTKVEIK",2.79 nM,binds,–,–,–,–
"Ab13 (antibody, V domains shown, Humanized; also called h39G5VHv13/h39G5VKv1) VH: EVQLVQSGAEVKKPGESLKISCKASGYTFTDYWMHWVRQMPGKGLEWMGIIDPSDSDTSLNQSFQGHVTISADKSISTAYLQWSSLKASDTAMYYCARSLDGYYDYWGQGTLVTVSS VL: DIQMTQSPSSLSASVGDRVTITCRASENIYSYLAWYQQKPGKAPKLLIYNARTLPEGVPSRFSGSGSGTDFTLTISSLQPEDFATYYCQHHYTTPWTFGQGTKVEIK",0.66 nM,–,1.1 nM,5.68 nM,0.55 nM,–
"Ab17 (antibody, V domains shown, Humanized; also called h71G4VHv2/h39G5VKv1) VH: QVQLVQSGAEVKKPGSSVKVSCKASGYTFTDYWMHWVRQAPGQGLEWMGTIDNSDSDTTYNQKFQGRVTLTVDTSTSTAYMELSSLRSEDTAVYYCARSVDGYLDYWGQGTLVTVSS VL: DIQMTQSPSSLSASVGDRVTITCRASENIYSYLAWYQQKPGKAPKLLIYNARTLPEGVPSRFSGSGSGTDFTLTISSLQPEDFATYYCQHHYTTPWTFGQGTKVEIK",1.98 nM,–,–,4.44 nM,–,–
"Ab11 (antibody, V domains shown, Humanized; also called h39G5VHv11/h39G5VKv1) VH: QVQLVQSGAEVKKPGSSVKVSCKASGYTFTDYWMHWVRQAPGQGLEWMGTIDNSDSDTSLNQKFQGRVTITADTSTSTAYMELSSLRSEDTAVYYCARSLDGYYDYWGQGTLVTVSS VL: DIQMTQSPSSLSASVGDRVTITCRASENIYSYLAWYQQKPGKAPKLLIYNARTLPEGVPSRFSGSGSGTDFTLTISSLQPEDFATYYCQHHYTTPWTFGQGTKVEIK",36 nM,binds,–,–,–,–
"Ab18 (antibody, V domains shown, Humanized; also called h71G4VHv3/h39G5VKv1) VH: QVQLVQSGAEVKKPGSSVKVSCKASGYTFTDYWMHWVRQAPGQGLEWMGTIDNSDSDTTYNQKFQGRVTMTRDTSTSTVYMELSSLRSEDTAVYYCARSVDGYLDYWGQGTLVTVSS VL: DIQMTQSPSSLSASVGDRVTITCRASENIYSYLAWYQQKPGKAPKLLIYNARTLPEGVPSRFSGSGSGTDFTLTISSLQPEDFATYYCQHHYTTPWTFGQGTKVEIK",2.15 nM,–,–,17.9 nM,–,–
"Ab8 (antibody, V domains shown, Humanized; also called h39G5VHv8/h39G5VKv1) VH: EVQLVQSGAEVKKPGESLKISCKASGYTFTDYWMHWVRQMPGKGLEWMGIIDPSDSDTSLNQSFQGHVTLSVDKSSTTAYLQWSSLKASDTAMYYCARSLDGYYDYWGQGTLVTVSS VL: DIQMTQSPSSLSASVGDRVTITCRASENIYSYLAWYQQKPGKAPKLLIYNARTLPEGVPSRFSGSGSGTDFTLTISSLQPEDFATYYCQHHYTTPWTFGQGTKVEIK",0.4 nM,–,2.05 nM,5.51 nM,1 nM,–
"Ab3 (antibody, V domains shown, Humanized; also called h39G5VHv3/h39G5VKv1) VH: EVQLVQSGAEVKKPGESLRISCKASGYSFISYWIHWVRQMPGKGLEWMGIIDPSDSDTSLNQSFQGHVTLSVDKSSTTAYLQWSSLKASDTAMYYCARSLDGYYDYWGQGTLVTVSS VL: DIQMTQSPSSLSASVGDRVTITCRASENIYSYLAWYQQKPGKAPKLLIYNARTLPEGVPSRFSGSGSGTDFTLTISSLQPEDFATYYCQHHYTTPWTFGQGTKVEIK",0.22 nM,–,1.65 nM,2.22 nM,0.62 nM,–
"Ab9 (antibody, V domains shown, Humanized; also called h39G5VHv9/h39G5VKv1) VH: EVQLVQSGAEVKKPGESLKISCKASGYTFTDYWMHWVRQMPGKGLEWMGTIDNSDSDTSLNQSFQGHVTLSVDKSSTTAYLQWSSLKASDTAMYYCARSLDGYYDYWGQGTLVTVSS VL: DIQMTQSPSSLSASVGDRVTITCRASENIYSYLAWYQQKPGKAPKLLIYNARTLPEGVPSRFSGSGSGTDFTLTISSLQPEDFATYYCQHHYTTPWTFGQGTKVEIK",3.03 nM,–,–,209 nM,–,–
"Ab15 (antibody, V domains shown, Humanized; also called h39G5VHv15/h39G5VKv1) VH: EVQLVQSGAEVKKPGESLKISCKASGYTFTDYWMHWVRQMPGKGLEWMGTIDNSDSDTSLNQSFQGHVTISADKSSTTAYLQWSSLKASDTAMYYCARSLDGYYDYWGQGTLVTVSS VL: DIQMTQSPSSLSASVGDRVTITCRASENIYSYLAWYQQKPGKAPKLLIYNARTLPEGVPSRFSGSGSGTDFTLTISSLQPEDFATYYCQHHYTTPWTFGQGTKVEIK",62.9 nM,no binding,–,–,–,–
"Ab5 (antibody, V domains shown, Humanized; also called h39G5VHv5/h39G5VKv1) VH: QVQLVQSGAEVKKPGSSVKVSCKASGYTFTDYWMHWVRQAPGQGLEWMGIIDPSDSDTSLNQKFQGRVTLTVDTSTSTAYMELSSLRSEDTAVYYCARSLDGYYDYWGQGTLVTVSS VL: DIQMTQSPSSLSASVGDRVTITCRASENIYSYLAWYQQKPGKAPKLLIYNARTLPEGVPSRFSGSGSGTDFTLTISSLQPEDFATYYCQHHYTTPWTFGQGTKVEIK",0.26 nM,–,1.69 nM,2.85 nM,0.28 nM,–

# Reference: US20230029835A1 (KEYMED BIOSCIENCES, published 2023)
